Test system: MS2 coat protein
Assay: apparent KD of MS2 coat protein; designed switch direction (-1 OFF switch, 1 ON switch): -1; higher = weaker reporter binding
Procedure, shortened: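 Designed RNA switches with common flanks were transcribed on Illumina chips by stalled E. coli RNA polymerase and titrated with SNAP-549-labelled MS2 coat protein, from 0.7 or 1.5 nM doubling to 3 µM, in Tris-HCl pH 7.5 buffer with KCl, MgCl2, BSA, DTT, tRNA and Tween-20. Steps lasted 0.8–1.5 h (lowest) to 10–20 min (highest). Titrations ran without input, with 200 uM small-molecule ligand, or with an oligonucleotide input. Normalised cluster fluorescence was curve-fitted, and apparent KD is the per-design median over clusters.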

[1] = Eterna round: R95, input ligand: FMN 200 uM
[2] = Eterna round: R95, input ligand: microRNA oligo, concentration not stated
[3] = Eterna round: R95, input ligand: none
[4] = input ligand: microRNA oligo, concentration not stated

Sequence | apparent KD of MS2 coat protein [1] [nM] | apparent KD of MS2 coat protein [2] [nM] | apparent KD of MS2 coat protein [3] [nM] | apparent KD of MS2 coat protein (input ligand: FMN 200 uM) [nM] | apparent KD of MS2 coat protein [4] [nM] | apparent KD of MS2 coat protein (input ligand: none) [nM]
UAGAUGCUCAGGGAGUGUGACAUGAGGAUCACCCAUGUGGUGGUAGGGAACAAGCUUUUUGCACGUACUUAUGAGUA [JR_SV3TOV1_Sub007] (puzzle: Sensor v3, turn-off variant 1) | 64.9 | 18.3 | 117 |  |  | 
GCGUGGGCCGCAGGAUAUGAGGCCGUGGGUUCACCCAAACACACAUGAGGAUCACCCAUGUGUCAUCAGAAGGGCGAGCCUACU [Sozasora] (Eterna round: R96, puzzle: Exclusion NG 2) |  |  |  | 18.9 | 17.5 | 21.4
AGUACUAACACGAAAGUGUUAGUACAACAAGCUUGUGAAACAUGAGGAUCACCCAUGUCCUCAUAAGCUCGUCUUAU [salish99_TOv2_r3_042] (puzzle: Sensor v3, turn-off variant 2) | 13.7 | 463 | 11.9 |  |  | 
GGUCAUCAAGUCAGGAUAUCGUCUGGUCGGUCUGGCGAGAAGGGACAUGAGGAUCACCCAUGUCGACUCAUCAG [Ex4 #11] (Eterna round: R97, puzzle: Brourd's mod of Exclusion 4) |  |  |  | 29.2 |  | 17.6
GUCUAGAGAGGAUAUAUUUACAGUGUACGUCGGAUGAUUGCACUUGAGGAUCACCCAAGUAGAAGGCUCGAGGG [EX2 #32] (Eterna round: R97, puzzle: Exclusion 2) |  |  |  | 457 |  | 303
UUUUACAGGCUUAGAUCCUACAUGAGGAUCACCCAUGUGGUGGCGUGUCGUGAGACAUGCCACUAAGCUCGUCUUGU [JL TOV1 3.73] (Eterna round: R97, puzzle: Sensor, turn-off variant 1) |  |  |  | 98.3 |  | 103
UAGAGACAUGAGGAUCACCCAUGUCAGGAUAUCUGCUUAGACAGGUUCACGGUCUAGUAGAGAAGGGACUGGAG [Eternabot (L2) Solution 42] (Eterna round: R97, puzzle: Exclusion 1) |  |  |  | 121 |  | 87.4
UUUUUAUAUGAAGGAUAUACUUAACAUGAGGAUCACCCAUGUGGUGUUGUGAGUGAGUGAGUUUAGUAGAAGGUCAAGUCUUUU [JMF's solution 36] (Eterna round: R96, puzzle: Exclusion NG 2) |  |  |  | 555 | 383 | 361
CCAGAAUGUGUCAGGAUAUCGGGUACCAAUAGCUUCGAGAAGGGACAUGAGGAUCACCCAUGUUCUCGGAGAGA [Eternabot (L2) Solution 76] (Eterna round: R97, puzzle: Brourd's mod of Exclusion 4) |  |  |  | 20.5 |  | 18
CAAUGAGGAGUGAGGAUAUCGUGUUCGAAAGAACGUGAGAAGGCACAUGAGGAUCACCCAUGUGAUCCUCAUUG [Omei Ex4B A24] (Eterna round: R97, puzzle: Brourd's mod of Exclusion 4) |  |  |  | 98.2 |  | 53.3
AAGUUGAAAGUCAGGAUAUCCAGACAAAAGUCAACGGAGAAGGGACUUGAGGAUCACCCAAGUGACCCUAAAUG [Usraleribe] (Eterna round: R97, puzzle: Brourd's mod of Exclusion 4) |  |  |  | 23.9 |  | 14.8
AUACCACGAGGAUAUCGUCUAUUUCACAUGAGGAUCACCCAUGUUAUCUUUGUUUCGUUUCGAGAAGGCGUGUUUU [JR_E5_Sub077] (puzzle: Exclusion 5) |  | 30.1 |  |  |  | 
UGCAAGCUUAUGAGACCUCACAUGAGGAUCACCCAUGUGCUCGUCUUAUGGGCCGGCCGGCCGUUGGCCGGCCGGCC [-45.5, -68.5 kcal, A 16%] (Eterna round: R97, puzzle: Sensor, turn-off variant 1) |  |  |  | 16.6 |  | 16.5
GUGCAACAUGAGGAUCACCCAUGUGAGGAUAUGCGAAUUUCAUCAAAAGAUGAAAUUUGCAGAAGGCACAGCAC [Omei Ex1 A13] (Eterna round: R97, puzzle: Exclusion 1) |  |  |  | 20.5 |  | 15.9
UGAGUGCUGCGAGGAUAUACAUGAGGAUCACCCAUGUGGUGGUGUGAGGCUUUGCCUCACACCAUGUAGAAGGCGCAGUACUCU [JL ENG2 1.08] (Eterna round: R96, puzzle: Exclusion NG 2) |  |  |  | 237 | 33.3 | 37.2
AAAACGGCAGGAUAUACAUGAGGAUCACCCAUGUGAAAUAAAAUAAAAUAAAAUAAAAGUAGAAGGGCCAAAAA [Exclusion 3 #3] (puzzle: Exclusion 3) | 40.4 | 40.7 | 58.6 |  |  | 
AGUACUAACACGCUUGUGUUAGUACAAUAAGCUUGUGAAACAUGAGGAUCACCCAUGUCCUCAUAAGCUCGUCUUAU [salish99_TOv2_r3_072] (puzzle: Sensor v3, turn-off variant 2) | 17 | 654 | 15.9 |  |  | 

Sequence | apparent KD of MS2 coat protein [1] [nM] | apparent KD of MS2 coat protein [2] [nM] | apparent KD of MS2 coat protein [3] [nM] | apparent KD of MS2 coat protein (input ligand: FMN 200 uM) [nM] | apparent KD of MS2 coat protein [4] [nM] | apparent KD of MS2 coat protein (input ligand: none) [nM]
AGUACUAACACGAAAGUGUUAGUACAAUAAGCUUGUGUUACAUGAGGAUCACCCAUGUCCUCAUAAGCUCGUCUUAA [Mat - Sensor v3 - Turn-off var 2 - D49] (puzzle: Sensor v3, turn-off variant 2) | 39.9 | 200 | 47.4 |  |  | 
GGAAAGCAAGGAUAUACGAGGAGAAGGAGGAAAGUAAAAGGACAUGAGGAUCACCCAUGUAGAAGGUGCGAGAG [JR_Exclu2_Sub040] (puzzle: Exclusion 2) | 27.6 | 29.7 | 32.9 |  |  | 
AAGGUGGCAGGAUAUACAUGAGGAUCACCCAUGUGAACGUAAGGAGACUCUCUCAAAGGUAGAAGGGUCGGUUC [Eternabot (L2) Solution 1] (Eterna round: R97, puzzle: Exclusion 3) |  |  |  | 56.3 |  | 121
GGUACUAUCACCUGAGUGGUAGUGCCACAAGCUUGUGAUACAUGAGGAUCACCCAUGUCCUCAUUUGCUCGUCUUAU [JL-sv3-2.28 JL mod] (puzzle: Sensor v3, turn-off variant 2) | 289 | 1080 | 343 |  |  | 
CUUCAAGCACCAGAGCUCACACUUAUACCUGCUCUGGUGACAUGAGGAUCACCCAUGUUUUUUGCCCGUCUUAUCUU [Sensor v3, turn-off variant 2 (MOD of Leso v.2)] (puzzle: Sensor v3, turn-off variant 2) | 92.8 | 276 | 115 |  |  | 
CGUUGAUGAGGAUAUCGAUGUUAGUACAUGAGGAUCACCCAUGUUAUCCAAGUGUCGUUUCGAGAAGGUAUUGGAC [LRO-Ex5-20] (puzzle: Exclusion 5) |  | 174 |  |  |  | 
UCGUAGUCAGGAUAUACAUGAGGAUCACCCAUGUAAAAUUUUAAUUUAAUUUUAAGGUGUAGAAGGGACCAUUU [Ex3 #21] (Eterna round: R97, puzzle: Exclusion 3) |  |  |  | 46.7 |  | 45.8
CGGUACUGAGGAUAUACAUGAGGAUCACCCAUGUGUUCUAGCUAGCGUACUGGCUAUUGUAGAAGGCGGUGCUG [JL-ex3-3.24 Brourd mod] (puzzle: Exclusion 3) |  | 17.5 |  |  |  | 
CGCCAUCGAGUGAGGAUAUCAGGUAAAGGUGUACAUGAGAAGGCACUUGAGGAUCACCCAAGUAUUAAAGAAAA [Mareat] (Eterna round: R97, puzzle: Brourd's mod of Exclusion 4) |  |  |  | 356 |  | 48.3
CCGGUUGGCGCAGGAUAUACAUGAGGAUCACCCAUGUUCAUGAGGAUCAUCCAUGAGUUUUUGUUGUAGAAGGGUGGCCCGGCC (Eterna round: R96, puzzle: Exclusion NG 2) |  |  |  | 117 | 60.8 | 98.4
AAGUACCGUCACGAUAGUGAUGGUACAACAAGCAUGUAAACAUGAGGAUCACCCAUGUCCUCAAAUGCUCGUCUUAU [Sensor 3 - 65] (puzzle: Sensor v3, turn-off variant 2) | 556 | 1090 | 689 |  |  | 
AUAAUGUGAGGAUAUCAGUCGACUAGCGAUAGCUAGUCGACUGAGAAGGCACAUGAGGAUCACCCAUGUGUUUC [E4/15-A4] (Eterna round: R97, puzzle: Exclusion 4) |  |  |  | 44.4 |  | 16.8
AAUAACAAGUAAGGUCCUAACAUGAGGAUCACCCAUGUGCUCGUCUUAUAAAGUACUAUCACGAAAGUGAUAGUACA [Sensor 3, v1 - 52] (puzzle: Sensor v3, turn-off variant 1) | 52.5 | 414 | 52.1 |  |  | 
UAUUAUCAAGCAAGAUCCUACAUGAGGAUCACCCAUGUGCUCGUCUUAUAAGGUACUGUGACGAAAGUCACGGUACC [Sensor 3, v1 - 73] (puzzle: Sensor v3, turn-off variant 1) | 107 | 107 | 153 |  |  | 
CAGCUGAAUGUGAGGAUAUUACGAGCGAUAGCUCGUGAGAAGGCACAUGAGGAUCACCCAUGUCUCAACAGCUG [BmEx4/2-B4] (Eterna round: R97, puzzle: Brourd's mod of Exclusion 4) |  |  |  | 552 |  | 38.6
ACAAGCUUUUAGAUUCUUAACAUGAGGAUCACCCAUGUGCUCGUCUUAUUGGCCGGCCGGCCGCCGGAAAAGCUUGU (Eterna round: R97, puzzle: Sensor, turn-off variant 1) |  |  |  | 24.9 |  | 25.3

Reference: the supplement of paper PMC9170038
